# Target: SARS-CoV-2 S-protein RBD (SARS-CoV-2, UniProt P0DTC2)
# Assay: SPR
binder,measurement,value
KKKKKKDKFNHEAEDLFY [S-protein neutralizing peptide AYn1],koff,0.001 s⁻¹

# From article PMC8326117 (2021)
